Reference: the nanobody polyreactivity screen of Harvey et al. (2022)

Assay: yeast display, Sf9 membrane polyspecificity reagent, FACS + sequencing; frameworks hold sequencing errors
Outline: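 A nanobody's polyreactivity label depends on the gate it was sorted from. Yeast display cells were stained with 10% biotinylated, detergent-solubilized Sf9 membrane reagent for 1 hour at 4 °C, enriched on streptavidin microbeads and sorted by FACS. The low and high (top ~1%) gates were set on anti-HA fluorescence for expression and streptavidin fluorescence for reagent binding.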

| Sequence | polyreactivity (PSR sort gate) |
| --- | --- |
| QVQLVESGGGLVQAGGSLRLSCAASGFIFYHYAMGWYRQAPGKERELVAAISWNGGRTYYADSVKGRFTISRDNAKNTVYLQMNSLKPEDTAVYYCAAPVLTSDYTLDSYYWGQGTQVTVSS | high polyreactivity |
| QVQLVESGGGLVQAGGSLRLSCAASGFIFYKNAMGWYRQAAGKERELVASITRTGDSTNYADSVKGRFTISRDNPKNTVYLQLNSLKPEDTAVYYCAKVLRRWPDPAGGMDYWGQGTQVTVSS | high polyreactivity |
| QVQLVESGGGLVQAGGSLRLSCAASGFIFYKNAMGWYRQAPGKERELVADISKRGASTYYADSVKGRFTISRDNAKNTVYLQMNSLKPEDTAVYYCAAGYYRASTTVTHGGIEGDSWGQGTQVTVSS | high polyreactivity |
| QVQLVESGGGLVQAGGSLRLSCAASGFIFYKYAMGWYRQAPGKERELVAAISRRGGNTYYADSVKGRFTISRDNAKNTVYLQMNSLKPEDTAVYYCIAVLYFPYEYWGQGTQVTVSS | high polyreactivity |
| QVQLVESGGGLVQAGGSLRLSCAASGFIFYLYAMGWYRQAPGKERELVAAISSSGGGTYYADSVKGRFTISRDNAKNTVYLQMNSLKPEDTAVYYCNVPLSYRSEYDYWGQGTQVTVSS | high polyreactivity |
| QVQLVESGGGLVQAGGSLRLSCAASGFIFYLYAMGWYRQAPGKERELVAAISWSGGITYYADSVKGRFTISRDNAKNTVYLQMNSLKPEDTAVYYCNAVGASASDGDYWGQGTQVTVSS | high polyreactivity |
| QVQLVESGGGLVQAGGSLRLSCAASGFIFYLYAMGWYRQAPGTERELVAAISSSGGGTYYADSVKGRFTISRDNAKNTVYLQMNSLKPEDTAVYYCNVPLSYRSEYDYWGQGTQVTVSS | high polyreactivity |
| QVQLVESGGGLVQAGGSLRLSCAASGFIFYNALGWYRQAPGKERELVAAISSGGNTNYADSVKGRFTISRDNAKNTVYLQMNSLKPEDTAVYYCNAGLYQYDGWANYIRYDYWGQGTQVTVSS | low polyreactivity |
| QVQLVESGGGLVQAGGSLRLSCAASGFIFYNYAMGWYRQAPGKERELVAAISASGGRTYYADSVKGRFTISRDNAKNTVYLQMNRLKPEETAVYYCNARVNYKGYDYWGQGTQVTVSS | high polyreactivity |
| QVQLVESGGGLVQAGGSLRLSCAASGFIFYNYAMGWYRQAPGKVRELVAAISASGGRTYYADSVKGRFTISRDNAKNTVYLQMNRLKPEDTAVYYCNARVNYKGYDYWGQGTQVTVSS | high polyreactivity |
| QVQLVESGGGLVQAGGSLRLSCAASGFIFYNYDMGWYRQAPGKERELVAAITGGGSTNYADSVKGRFTISRDNAKNTVYLKMNSLKPEDTAVYYCAAEEGPPCYRYDYWGQGTQVTVSS | low polyreactivity |
| QVQLVESGGGLVQAGGSLRLSCAASGFIFYPNPMGWYRQAPGKERELVAAITSGGSTYADSVKGRFTISRDNAKNTVYLQMNSLKPEDTAVYYCAAVDTSIITFWYIASDGFDYWGQGTQVTVSS | low polyreactivity |
| QVQLVESGGGLVQAGGSLRLSCAASGFIFYPYAMGSYRQAPGKERELVAAITSSGGSTYYADSVKGRFTISRDNAKNTVYLQMNSLKPEDTAVYYCAAYTSYYGTIIAFRYYYWGQGTQVTVSS | high polyreactivity |
| QVQLVESGGGLVQAGGSLRLSCAASGFIFYQYAMGWYRQAPGKERELVAAISWGGGSTYYADSVKGRFTISRDNAKNTVYLQMNSLKPEDTAVYYCAATGLGWHSYHEYDYWGQGTQVTVSS | low polyreactivity |
| QVQLVESGGGLVQAGGSLRLSCAASGFIFYQYAMGWYRQAPGKERELVATISFRGGRTYYADSVKGRFTISRDNAKNTVYLQMNSLKPEDTAVYYCNAKRVSSRFYKWDYYWGQGTEVTVSS | high polyreactivity |
| QVQLVESGGGLVQAGGSLRLSCAASGFIFYRNTMGWYRQAPGKERELVATISRRGGSTYYADSVKGRFTISRDNAKHTVYLQMNSLKPEDTAVYYCNADQEYSRPRYGMDYWGQGTQVTVSS | high polyreactivity |
| QVQLVESGGGLVQAGGSLRLSCAASGFIFYRYAMGWYRQAPGKERELVAAISYSGGSTYYADSVKGRFTISRDNAKNTVYLQMNSLKPEDTAVYYCAKGLTALGDYWGQGTQVTVSS | high polyreactivity |
| QVQLVESGGGLVQAGGSLRLSCAASGFIFYRYAMGWYRQQPGKERELVAAISSRGGTTYYADSVKWRFTISRDNAKNTVYLQMNSLKPEDTAVYYCAADRGYKMGYWLQGTQVTVSS | high polyreactivity |
| QVQLVESGGGLVQAGGSLRLSCAASGFIFYRYTMGWYRPAPGKERELVASITWSDGSTSYADSVNGRFTISRDNAKNTVYLQMNSLKPEDTAVYYCAADVSYQVIYEYDYSGQGTQVTVSS | low polyreactivity |
| QVQLVESGGGLVQAGGSLRLSCAASGFIFYRYTMGWYRQAPGKERELVAAITSAGSTYYADSVKGRFTISRDNAKNTVYLQMNSLKPEDTAVYYCNADSTWGGYGFDYWGQGTQVTVSS | low polyreactivity |
| QVQLVESGGGLVQAGGSLRLSCAASGFIFYRYTMGWYRQAPGKERELVAGISSRGTRTYYADSVKGRFTISRDNAKNTVYLQMNSLKPEDTAVYYCAAVLTQPKKVNYWGQGTQVTVSS | high polyreactivity |
